Measured values as given in PMC6341664, “Role of the highly conserved G68 residue in the yeast phosphorelay protein Ypd1: implications for interactions between histidine phosphotransfer (HPt) and response regulator proteins” (BMC Biochemistry, 2019).

Experiments:
Assay in all cases: other fluorescence titration; 5-IAF-labelled Ypd1-T12C (30 pmol in 1.9 mL) titrated with Sln1-R1, 10 nM to 6 uM; 23.0 °C; 20 mM Tris pH 8.0, 50 mM NaCl, 10 mM MgCl2; excitation 492 nm, emission 515 nm; quadratic fit; 'observed' Kd, three replicate titrations
Settings in all cases: both partners purified
[1] = target: T1, Ypd1-T12C-G68L, fluorescein-labelled (S. cerevisiae, UniProt Q07688 3-167, T12C | G68L, 5-iodoacetamidofluorescein (5-IAF) on the cysteine introduced at position 12)
T1 construct: Ypd1, HPt protein of Saccharomyces cerevisiae; double mutant made on pET-Ypd1-T12C; also called Ypd1-G68L
T1 sequence: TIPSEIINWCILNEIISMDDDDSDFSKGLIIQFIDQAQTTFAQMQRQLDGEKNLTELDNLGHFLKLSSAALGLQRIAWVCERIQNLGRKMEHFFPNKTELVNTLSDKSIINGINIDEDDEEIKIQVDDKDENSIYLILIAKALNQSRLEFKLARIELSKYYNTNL

[2] = target: T2, Ypd1-T12C~F (fluorescein-labelled Ypd1-T12C) (S. cerevisiae, UniProt Q07688 3-167, T12C, 5-iodoacetamidofluorescein (5-IAF) on the cysteine introduced at position 12 (70-90% of the molecules labelled))
T2 construct: Ypd1, histidine phosphotransfer (HPt) protein of Saccharomyces cerevisiae; YPD1 gene in pET21a(+), T12C; also called WT; 5-IAF labelled Ypd1
T2 sequence: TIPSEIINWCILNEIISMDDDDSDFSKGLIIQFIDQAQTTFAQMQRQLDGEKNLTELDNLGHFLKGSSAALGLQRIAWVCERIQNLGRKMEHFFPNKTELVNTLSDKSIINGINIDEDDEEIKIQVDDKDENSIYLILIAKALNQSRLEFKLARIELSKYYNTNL

[3] = target: T3, Ypd1-T12C-G68E, fluorescein-labelled (S. cerevisiae, UniProt Q07688 3-167, T12C | G68E, 5-iodoacetamidofluorescein (5-IAF) on the cysteine introduced at position 12)
T3 construct: Ypd1, HPt protein of Saccharomyces cerevisiae; double mutant made on pET-Ypd1-T12C; also called Ypd1-G68E
T3 sequence: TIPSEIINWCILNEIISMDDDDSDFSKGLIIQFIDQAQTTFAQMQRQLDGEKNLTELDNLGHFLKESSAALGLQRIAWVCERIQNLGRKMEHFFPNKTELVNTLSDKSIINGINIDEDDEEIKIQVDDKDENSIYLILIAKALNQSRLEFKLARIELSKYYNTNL

[4] = target: T4, Ypd1-T12C-G68Q, fluorescein-labelled (S. cerevisiae, UniProt Q07688 1-167, T12C | G68Q, 5-iodoacetamidofluorescein (5-IAF) on the cysteine introduced at position 12)
T4 construct: Ypd1, HPt protein of Saccharomyces cerevisiae; double mutant made on pET-Ypd1-T12C; PDB 6M7W is the single mutant Ypd1-G68Q (from pUC-Ypd1, without T12C); also called Ypd1-G68Q
T4 sequence: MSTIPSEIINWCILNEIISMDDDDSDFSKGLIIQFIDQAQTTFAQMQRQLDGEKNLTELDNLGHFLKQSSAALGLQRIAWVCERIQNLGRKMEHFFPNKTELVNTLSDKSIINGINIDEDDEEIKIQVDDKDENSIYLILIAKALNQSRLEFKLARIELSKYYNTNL

[5] = target: T5, Ypd1-T12C-G68V, fluorescein-labelled (S. cerevisiae, UniProt Q07688 3-167, T12C | G68V, 5-iodoacetamidofluorescein (5-IAF) on the cysteine introduced at position 12)
T5 construct: Ypd1, HPt protein of Saccharomyces cerevisiae; double mutant made on pET-Ypd1-T12C; also called Ypd1-G68V
T5 sequence: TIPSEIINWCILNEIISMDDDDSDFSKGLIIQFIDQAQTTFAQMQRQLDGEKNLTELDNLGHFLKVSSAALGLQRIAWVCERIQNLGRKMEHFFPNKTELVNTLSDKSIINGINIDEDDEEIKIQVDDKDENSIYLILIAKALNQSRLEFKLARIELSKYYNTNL

Kd [1]: 1300 nM
Kd [2]: 940 nM
Kd [3]: 500 nM
Kd [4]: 600 nM
Kd [5]: 2900 nM
B1: Sln1-R1 (receiver domain of Sln1) (domain or fragment, S. cerevisiae)
chain: TSVKILVVEDNHVNQEVIKRMLNLEGIENIELACDGQEAFDKVKELTSKGENYNMIFMDVQMPKVDGLLSTKMIRRDLGYTSPIVALTAFADDSNIKECLESGMNGFLSKPIKRPKLKTILTEFCAAYQGKKNNK
notes: Receiver domain (R1) of the hybrid sensor histidine kinase Sln1 of Saccharomyces cerevisiae, in the vector pFJS16; neither is said here; also called receiver domain from Sln1
